Target: ribosomal protein bL12 (E. coli (endogenous in ribosomes of strain MRE600)) (UniProt P0A7K2)
Sequence of UniProt P0A7K2 (P0A7K2 whole entry): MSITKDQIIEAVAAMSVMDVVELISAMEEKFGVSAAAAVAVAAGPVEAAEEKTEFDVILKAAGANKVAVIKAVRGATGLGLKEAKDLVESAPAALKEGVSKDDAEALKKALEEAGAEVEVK

apparent affinity of RF1 for pre-hydrolysis complexes (PreHC, 0.01 uM) prepared with bL12-depleted (∆bL12) ribosomes, from peptide hydrolysis (10 s, 37 °C): 210 nM
apparent affinity of RF1 for pre-hydrolysis complexes (PreHC, 0.01 uM) prepared with wild-type ribosomes bearing bL12, from peptide hydrolysis (10 s, 37 °C): 9 nM
Substance: RF1 (wild type) (from UniProt P0A7I0 1-360) (natural protein)

Reference: PMC6076264
